# Assay results reported in patent US20110190477A1 (published 2011).
# T1: human C5a receptor (UniProt P21730 1-350)
# T1 chain: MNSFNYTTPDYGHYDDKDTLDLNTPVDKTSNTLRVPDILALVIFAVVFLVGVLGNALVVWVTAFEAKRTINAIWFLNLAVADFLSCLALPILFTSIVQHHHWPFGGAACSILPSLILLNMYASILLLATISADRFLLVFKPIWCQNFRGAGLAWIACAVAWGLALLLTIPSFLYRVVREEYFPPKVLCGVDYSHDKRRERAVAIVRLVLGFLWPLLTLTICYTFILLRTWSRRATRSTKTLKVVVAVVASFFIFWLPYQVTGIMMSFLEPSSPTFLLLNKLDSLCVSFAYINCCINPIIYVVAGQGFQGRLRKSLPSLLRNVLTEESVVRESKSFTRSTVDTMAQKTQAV
# What was measured:
# [1] = biological target: T1, human C5a receptor; experiment: saturation binding to human neutrophils (flow cytometry, MFI); 4 C
# [2] = biological target: T1, human C5a receptor; experiment: as above
Binder,Kd [1],EC50 [2]
humanized anti-C5aR antibody hAb-J (antibody) light: DVVMTQSPLSLPVTLGEPASISCRSSQSLVHSNGNTYLHWYLQKPGQSPQLLIYKVSNRFSGVPDRFSGSGSGTDFTLKISRVEAEDVGVYFCSQSTLVPLTFGQGTKLEIKTVAAPSVFIFPPSDEQLKSGTASVVCLLNNFYPREAKVQWKVDNALQSGNSQESVTEQDSKDSTYSLSSTLTLSKADYEKHKVYACEVTHQGLSSPVTKSFNRGEC heavy: not shown,25.4 nM,20.1 nM
"mouse anti-C5aR monoclonal antibody 7F3 (antibody, V domains shown) VH: QVQLQQSGPELVKPGASVKISCKASGYAFSNSWMNWVKQRPGKGLEWIGRIYPGDGDTKYNGKFKGKATLTADKSSSTAYMQLSSLTSEDSAVYFCARFLLISTVTAVDYWGQGTTLTVSS VL: DVVMTQSPLSLPVSLGNQASISCRSSQSLVHSNGNTYLHWYLQKPGQSPKLLIYKVSNRFSGVPDRFSGSGSGTDFSLKISRVEAEDLGVYFCSQSTLVPLTFGAGTKLELK",9.2 nM,8.51 nM
humanized anti-C5aR antibody hAb-Q (antibody) light: DVVMTQSPLSLPVTLGEPASISCRSSQSLVHSNGNTYLHWYLQKPGQSPQLLIYKVSNRFSGVPDRFSGSGSGTDFTLKISRVEAEDVGVYFCSQSTLVPLTFGQGTKLEIKRTVAAPSVFIFPPSDEQLKSGTASVVCLLNNFYPREAKVQWKVDNALQSGNSQESVTEQDSKDSTYSLSSTLTLSKADYEKHKVYACEVTHQGLSSPVTKSFNRGEC heavy: not shown,22.6 nM,21.6 nM
